Results as given in patent US20180265572A1 (Bristol-Myers Squibb, published 2018).
“And” between values parts separate entries of the source, which are not always exact repeats. Equal values may be shown once. Values belong to the binder of their own block, whether it stands above or below them.

Legend:
mouse IGF1R = mouse IGF1R (mouse, UniProt Q60751 31-933, limits assumed); assay: method not stated; mouse IGF1R
human IGF1R = human IGF1R (human, UniProt P08069 31-932, limits assumed); assay: method not stated; human IGF1R
Chain of human IGF1R (P08069 31-932 limits assumed): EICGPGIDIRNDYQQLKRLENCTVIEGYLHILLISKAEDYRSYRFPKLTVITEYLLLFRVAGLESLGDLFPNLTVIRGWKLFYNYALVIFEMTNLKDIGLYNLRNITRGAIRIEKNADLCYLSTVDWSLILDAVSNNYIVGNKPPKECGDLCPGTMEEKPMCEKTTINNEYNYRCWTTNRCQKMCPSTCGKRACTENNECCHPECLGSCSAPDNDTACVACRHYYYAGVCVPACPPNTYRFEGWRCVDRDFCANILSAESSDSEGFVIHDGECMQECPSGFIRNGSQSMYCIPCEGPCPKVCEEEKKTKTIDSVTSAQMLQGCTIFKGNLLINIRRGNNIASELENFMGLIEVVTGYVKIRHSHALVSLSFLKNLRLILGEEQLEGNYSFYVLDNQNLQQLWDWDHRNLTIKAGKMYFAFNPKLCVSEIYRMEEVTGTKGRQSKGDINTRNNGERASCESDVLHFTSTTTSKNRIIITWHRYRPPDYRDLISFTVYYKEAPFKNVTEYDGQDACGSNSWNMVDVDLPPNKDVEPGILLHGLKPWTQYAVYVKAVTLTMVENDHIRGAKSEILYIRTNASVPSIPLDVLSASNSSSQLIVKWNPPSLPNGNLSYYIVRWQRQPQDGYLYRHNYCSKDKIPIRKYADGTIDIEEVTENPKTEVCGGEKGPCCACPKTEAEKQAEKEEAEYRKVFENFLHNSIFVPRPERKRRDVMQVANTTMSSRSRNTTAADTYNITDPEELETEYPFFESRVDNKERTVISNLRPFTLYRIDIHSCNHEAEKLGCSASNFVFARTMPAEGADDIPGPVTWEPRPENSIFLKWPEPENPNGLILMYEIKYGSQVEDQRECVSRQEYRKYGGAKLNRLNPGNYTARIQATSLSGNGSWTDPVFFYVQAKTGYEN

monkey IGF1R = monkey IGF1R (monkey); assay: method not stated
rat IGF1R = rat IGF1R (rat, UniProt P24062 31-933, limits assumed); assay: method not stated; rat IGF1R
VEGFR2-Fc (R&D Systems) [1] = target: T1, VEGFR2-Fc (R&D Systems) (UniProt P35968 20-764); assay: SPR (Biacore), immobilized VEGFR2-Fc, midscale purified binder
T1 construct: Bought reagent; not shown: Fc part of the bought fusion; not described
T1 sequence (P35968 20-764 limits assumed): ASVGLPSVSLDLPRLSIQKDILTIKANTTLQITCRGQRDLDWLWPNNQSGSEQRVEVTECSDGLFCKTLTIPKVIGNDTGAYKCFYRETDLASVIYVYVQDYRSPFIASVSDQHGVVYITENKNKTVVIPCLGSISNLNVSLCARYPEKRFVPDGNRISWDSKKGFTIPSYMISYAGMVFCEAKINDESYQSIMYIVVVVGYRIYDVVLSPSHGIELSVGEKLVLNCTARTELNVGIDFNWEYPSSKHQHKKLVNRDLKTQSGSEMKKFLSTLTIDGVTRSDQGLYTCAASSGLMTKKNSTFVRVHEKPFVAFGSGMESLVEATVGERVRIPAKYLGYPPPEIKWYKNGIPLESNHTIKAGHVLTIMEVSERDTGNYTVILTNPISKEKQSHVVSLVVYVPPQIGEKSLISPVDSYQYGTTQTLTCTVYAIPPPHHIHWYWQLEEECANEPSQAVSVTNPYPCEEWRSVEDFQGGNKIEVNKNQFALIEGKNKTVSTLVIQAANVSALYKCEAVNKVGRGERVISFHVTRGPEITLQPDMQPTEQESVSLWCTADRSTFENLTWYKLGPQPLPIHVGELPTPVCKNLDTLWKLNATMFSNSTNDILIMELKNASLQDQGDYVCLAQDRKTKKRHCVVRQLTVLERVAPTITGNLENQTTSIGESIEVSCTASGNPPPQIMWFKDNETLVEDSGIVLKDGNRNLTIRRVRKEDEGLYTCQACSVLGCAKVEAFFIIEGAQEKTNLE

VEGFR2-Fc (R&D Systems) [2] = target: T1, VEGFR2-Fc (R&D Systems); assay: SPR (Biacore), VEGFR2-Fc immobilised directly on a CM5 chip
human IGF-IR-Fc fusion [3] = target: T2, human IGF-IR-Fc fusion (human, UniProt P08069 31-932); assay: SPR (Biacore), IGF-IR-Fc captured on Protein A
T2 construct: range 1-932; If it counts on the precursor, it includes the signal peptide; also called IGF1R-Fc; not shown: hinge and constant regions of human IgG
T2 sequence (P08069 31-932 limits assumed, form in doubt): as the sequence (P08069 31-932 limits assumed) above
Description: (§1) An alternative method is to capture the IGF—IR-Fc on Protein A. This method was used for calculating the affinity and kinetics of certain versions of the construct 385A08-Fn-V2B-cys (both pegylated and non-pegylated and with or without his tag) from midscale and large scale materials. Specifically, IGF—IR-Fc was captured on Protein A immobilized on a Biacore CM5 sensor chip by amine coupling. VEGFR2-Fc was immobilized directly on a CM5 chip by amine coupling. The affinity and kinetic analysis involved the capture of IGF—IR-Fc on Protein A followed by injection of the tandem adnectin in solution over IGF—IR-Fc and VEGFR2-Fc. The analytical surface was regenerated between samples with glycine pH 1.5. Sensorgrams were obtained at each concentration and were evaluated using Biacore T100 evaluation software to determine the rate constants kₐ (kₒₙ) and kd (koff).

[4] = target: T3, VEGFR-2 (KDR) on transfected cells (UniProt P35968 20-1356, limits assumed); assay: competitive blocking assay on 293:KDR cells; competitor 200 nM IRDye 800CW-labelled Peg-V2Bshort
T3 construct: whole, on cells; also called Flk-1
T3 sequence (P35968 20-1356 limits assumed): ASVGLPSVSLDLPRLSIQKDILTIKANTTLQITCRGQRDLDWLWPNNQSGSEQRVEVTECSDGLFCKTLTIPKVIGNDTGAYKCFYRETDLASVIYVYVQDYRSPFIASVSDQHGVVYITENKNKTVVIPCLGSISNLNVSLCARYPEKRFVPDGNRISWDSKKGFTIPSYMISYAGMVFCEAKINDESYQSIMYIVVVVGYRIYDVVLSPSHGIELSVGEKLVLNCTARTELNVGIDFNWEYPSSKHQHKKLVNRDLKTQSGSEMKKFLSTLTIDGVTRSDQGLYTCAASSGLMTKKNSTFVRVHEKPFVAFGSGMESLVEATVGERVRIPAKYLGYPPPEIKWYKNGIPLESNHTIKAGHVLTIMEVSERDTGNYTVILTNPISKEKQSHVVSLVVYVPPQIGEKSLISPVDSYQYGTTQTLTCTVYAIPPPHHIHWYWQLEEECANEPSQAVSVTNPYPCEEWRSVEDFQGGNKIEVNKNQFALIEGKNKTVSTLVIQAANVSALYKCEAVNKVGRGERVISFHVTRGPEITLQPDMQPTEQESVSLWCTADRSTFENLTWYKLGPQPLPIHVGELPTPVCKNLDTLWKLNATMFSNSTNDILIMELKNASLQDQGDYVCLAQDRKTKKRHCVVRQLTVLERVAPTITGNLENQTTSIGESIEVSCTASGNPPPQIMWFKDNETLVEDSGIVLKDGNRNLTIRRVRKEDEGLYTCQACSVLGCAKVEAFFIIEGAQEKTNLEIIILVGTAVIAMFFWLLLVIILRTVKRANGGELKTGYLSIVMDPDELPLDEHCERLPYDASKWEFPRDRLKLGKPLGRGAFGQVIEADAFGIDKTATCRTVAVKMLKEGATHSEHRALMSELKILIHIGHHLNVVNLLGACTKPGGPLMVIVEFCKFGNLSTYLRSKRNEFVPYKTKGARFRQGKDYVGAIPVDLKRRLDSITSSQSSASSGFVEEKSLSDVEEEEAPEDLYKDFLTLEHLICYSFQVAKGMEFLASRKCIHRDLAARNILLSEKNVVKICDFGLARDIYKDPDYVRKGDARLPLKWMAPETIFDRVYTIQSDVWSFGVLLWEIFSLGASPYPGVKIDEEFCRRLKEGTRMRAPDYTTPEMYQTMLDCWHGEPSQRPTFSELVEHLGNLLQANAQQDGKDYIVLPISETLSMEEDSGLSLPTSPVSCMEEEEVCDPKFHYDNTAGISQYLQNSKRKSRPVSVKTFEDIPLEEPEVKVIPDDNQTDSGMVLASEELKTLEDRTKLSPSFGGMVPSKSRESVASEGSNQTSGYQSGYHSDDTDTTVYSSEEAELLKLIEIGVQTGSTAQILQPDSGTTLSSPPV
Method: (§2) Similarly, the pegylated, his-tagged construct 385A08-Fn-V2B-cys was able to block the interaction of a mono-specific ¹⁰Fn3-based VEGFR-2 binder (Peg-V2Bshort, SEQ ID NO: 28) with VEGFR-2 present on 293:KDR cells. […] In particular, in a Ba/F3 assay (described below), the IC₅₀ for the monomeric, non-pegylated VEGFR2 binder V2Bshort (SEQ ID NO: 28) is approximately 0.1-3 nM whereas the IC₅₀ for the monomeric, non-pegylated VEGFR2 binder having SEQ ID NO: 44 (e.g., with an N-terminal extension) is approximately 8-13 nM. […] Both the R⁺ and 293:KDR cell based competitive blocking assays are described in detail in the materials and methods section below.
(§3) 293:KDR (Sibtech, Brookfield, Conn.) were plated in 96 well plates at a concentration of 25,000 cells per well in DMEM (Invitrogen, Carlsbad, Calif.) containing 10% fetal bovine serum (Hyclone, Logan, Utah). The following day, cells were washed twice in serum free DMEM containing 0.1% BSA (Invitrogen, Carlsbad, Calif.). After the washes, the cells were incubated at 4° C. for 10 minutes in binding buffer (serum free DMEM+0.1% BSA) containing increasing concentrations of VEGFR-2 antagonists or controls. Typical controls included the mono-specific ¹⁰Fn3-based VEGFR2 binder (Peg-V2Bshort, SEQ ID NO: 28) (positive control) or the mono-specific ¹⁰Fn3-based IGF-IR binder (AT580-PEG40, SEQ ID NO: 27) (negative control). […]

human IGF-IR-Fc fusion [5] = target: T2, human IGF-IR-Fc fusion; assay: SPR (Biacore), captured IGF1R-Fc, midscale purified binder
[6] = target: T3, VEGFR-2 (KDR) on transfected cells; assay: competitive blocking assay on 293:KDR cells; ratio of the IC50 values
Method: as §2, §3

VEGFR2-Fc (R&D Systems) [7] = target: T1, VEGFR2-Fc (R&D Systems); assay: SPR (Biacore), VEGFR2-Fc immobilized directly on the chip
Method: (§4) Affinity data was also measured from midscale and large scale material, for the pegylated version of the tandem construct 385A08-Fn-V2B-cys (SEQ ID NO: 9, with and without his tag). The specific materials and methods for these calculations are described below.
as §1
The functionality of the V2B domain was assessed by evaluating a concentration series of the midscale and large scale purification of the tandem construct 385A08-Fn-V2B (pegylated, and non-pegylated versions, his-tag and non-his-tag versions) vs. VEGFR2-Fc that was directly immobilized on a CM5 chip surface (GE, Piscataway, N.J.). VEGFR2-Fc (R&D Systems, MN) was diluted to 12 ug/mL in 50 mM Acetate pH 5.0 for an immobilization level of ˜1300 RU. Varying concentrations of 385A08-Fn-V2B in the solution phase were monitored for association (2 minutes) and dissociation (10 minutes) kinetics at a flow rate of 50 uL/min. Two 30 second injections of 50 mM glycine pH 1.7 were used to regenerate the surface.

human IGF-IR on cells = target: T4, human IGF-IR on cells (human, UniProt P08069 31-1367); assay: competitive blocking assay on R+ cells overexpressing human IGF-IR; competitor 200 nM IRDye 800CW-labelled AT580-PEG20-AT580
T4 construct: whole, on cells; also called cell surface IGF-IR
Method: Certain tandem constructs were evaluated for their ability to compete with mono-specific IGF-IR and VEGFR-2 binders in vitro.
R⁺, a gift from Renato Baserga (Thomas Jefferson University, Philadelphia, Pa.), is a mouse embryo fibroblast overexpressing human IGF-IR in the context of a deletion in the mouse IGF-IR gene. Cells were plated in 96 well plates at a concentration of 20,000 cells per well in DMEM (Invitrogen, Carlsbad, Calif.) containing 5% calf serum (Hyclone, Logan, Utah). The following day, cells were washed twice in serum free DMEM containing 0.1% BSA (Invitrogen, Carlsbad, Calif.). After the washes, the cells were incubated at 4° C. for 10 minutes in binding buffer (serum free DMEM+0.1% BSA) containing increasing concentrations of IGF-IR antagonists or controls. Typical controls included the mono-specific ¹⁰Fn3-based IGF-IR binder (AT580-PEG40, SEQ ID NO: 27) (positive control) or the mono-specific ¹⁰Fn3-based VEGFR2 binder (Peg-V2Bshort, SEQ ID NO: 28) (negative control). Following this brief exposure to antagonists, R⁺ cells were additionally exposed to 200 nM of a bi-valent ¹⁰Fn3-based IGF-IR binder (AT580-PEG20-AT580, SEQ ID NO: 27) labeled with IRDye 800CW according to the manufacturer instructions (Li-Cor Biosciences, Lincoln, Nebr.). […] The resulting data was analyzed using GraphPad Prism (GraphPad Software, La Jolla, Calif.).

[8] = target: VEGFR-2 in nude mice (in vivo) (UniProt P35918 20-1345, limits assumed); assay: cell-based or functional assay
Chain of VEGFR-2 in nude mice (in vivo) (P35918 20-1345 limits assumed): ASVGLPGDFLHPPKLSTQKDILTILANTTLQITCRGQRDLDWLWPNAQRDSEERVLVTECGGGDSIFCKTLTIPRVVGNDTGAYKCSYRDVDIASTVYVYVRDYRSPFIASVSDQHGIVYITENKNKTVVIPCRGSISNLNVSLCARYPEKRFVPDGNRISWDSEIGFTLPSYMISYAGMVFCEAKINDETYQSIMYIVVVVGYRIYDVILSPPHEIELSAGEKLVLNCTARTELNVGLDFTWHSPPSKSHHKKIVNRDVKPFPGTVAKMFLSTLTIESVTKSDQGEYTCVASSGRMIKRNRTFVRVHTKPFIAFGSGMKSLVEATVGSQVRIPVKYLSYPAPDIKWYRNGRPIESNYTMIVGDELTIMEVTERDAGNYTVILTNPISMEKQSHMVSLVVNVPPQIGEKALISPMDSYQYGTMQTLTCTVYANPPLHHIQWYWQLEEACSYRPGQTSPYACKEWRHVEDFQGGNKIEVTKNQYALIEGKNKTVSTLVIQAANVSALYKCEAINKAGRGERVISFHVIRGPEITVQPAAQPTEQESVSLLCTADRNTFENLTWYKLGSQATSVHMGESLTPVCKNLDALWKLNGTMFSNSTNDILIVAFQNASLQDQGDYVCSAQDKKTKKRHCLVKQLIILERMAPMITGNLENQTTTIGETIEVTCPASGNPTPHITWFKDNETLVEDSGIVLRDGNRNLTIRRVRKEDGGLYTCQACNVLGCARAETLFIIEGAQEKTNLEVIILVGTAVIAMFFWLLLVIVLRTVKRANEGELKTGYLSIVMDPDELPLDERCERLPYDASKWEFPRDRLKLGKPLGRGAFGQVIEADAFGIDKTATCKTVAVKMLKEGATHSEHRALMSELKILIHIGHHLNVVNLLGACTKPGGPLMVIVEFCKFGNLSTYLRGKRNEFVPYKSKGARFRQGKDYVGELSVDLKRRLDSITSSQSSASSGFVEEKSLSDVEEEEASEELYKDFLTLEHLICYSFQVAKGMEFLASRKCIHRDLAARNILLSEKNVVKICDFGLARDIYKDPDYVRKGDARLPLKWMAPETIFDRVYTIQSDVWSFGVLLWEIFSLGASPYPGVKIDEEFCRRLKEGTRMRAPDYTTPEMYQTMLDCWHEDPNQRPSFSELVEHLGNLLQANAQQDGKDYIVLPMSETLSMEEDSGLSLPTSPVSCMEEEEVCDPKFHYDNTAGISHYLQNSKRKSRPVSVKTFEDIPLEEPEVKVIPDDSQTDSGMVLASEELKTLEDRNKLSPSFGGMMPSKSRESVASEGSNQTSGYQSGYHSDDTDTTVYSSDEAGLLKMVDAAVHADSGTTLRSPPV

[9] = target: VEGFR-2 in cynomolgus monkeys (in vivo); assay: cell-based or functional assay
human IGF-IR-Fc fusion [10] = target: T2, human IGF-IR-Fc fusion; assay: SPR (Biacore), IGF1R-Fc captured on Protein A
Method: as §4, §1

Kd (mouse IGF1R): 86 nM
Kd (human IGF1R): 0.277 nM
Kd (monkey IGF1R): 0.213 nM
Kd (rat IGF1R): 92 nM
B1: 385A08-Fn-V2B-cys (with Peg) (designed binder)
chain: MGVSDVPRDLEVVAATPTSLLISWSARLKVARYYRITYGETGGNSPVQEFTVPKNVYTATISGLKPGVDYTITVYAVTRFRDYQPISINYRTEIDKPSTSTSTVSDVPRDLEVVAATPTSLLISWRHPHFPTRYYRITYGETGGNSPVQEFTVPLQPPTATISGLKPGVDYTITVYAVTDGRNGRLLSIPISINYRTEIDKPCQ
modifications: PEG on the single cysteine at position 203

koff (VEGFR2-Fc (R&D Systems) [1]): 0.000149 s⁻¹
kon (VEGFR2-Fc (R&D Systems) [1]): 10600 M⁻¹ s⁻¹
Kd (VEGFR2-Fc (R&D Systems) [2]): 14 nM
Kd (human IGF-IR-Fc fusion [3]): 1.2 nM
IC50 [4]: ~140 nM
koff (human IGF-IR-Fc fusion [5]): 0.000233 s⁻¹
kon (human IGF-IR-Fc fusion [5]): 200000 M⁻¹ s⁻¹
fold difference in activity against Peg-V2Bshort [6]: 7 fold
Kd (VEGFR2-Fc (R&D Systems) [7]): 11 nM and 5.96 nM and 12.6 nM
koff (VEGFR2-Fc (R&D Systems) [7]): 9.5e-05 s⁻¹ (2×) and 0.00013 s⁻¹
kon (VEGFR2-Fc (R&D Systems) [7]): 8600 M⁻¹ s⁻¹ and 21800 M⁻¹ s⁻¹ and 7530 M⁻¹ s⁻¹
IC50 (human IGF-IR on cells): 900 nM
plasma IC50, indirect-response PD model, nude mice bearing the Rh41 tumor [8]: 13.8 µM
plasma IC50 (grand mean), PK/PD model, monkeys [9]: 228 nM
Kd (human IGF-IR-Fc fusion [10]): 0.831 nM and 0.465 nM and 0.857 nM
koff (human IGF-IR-Fc fusion [10]): 0.00025 s⁻¹ and 0.000223 s⁻¹ and 0.000238 s⁻¹
kon (human IGF-IR-Fc fusion [10]): 299000 M⁻¹ s⁻¹ and 480000 M⁻¹ s⁻¹ and 277000 M⁻¹ s⁻¹
B2: pegylated, his-tagged 385A08-Fn-V2B-cys (designed binder)
chain: MGVSDVPRDLEVVAATPTSLLISWSARLKVARYYRITYGETGGNSPVQEFTVPKNVYTATISGLKPGVDYTITVYAVTRFRDYQPISINYRTEIDKPSTSTSTVSDVPRDLEVVAATPTSLLISWRHPHFPTRYYRITYGETGGNSPVQEFTVPLQPPTATISGLKPGVDYTITVYAVTDGRNGRLLSIPISINYRTEIDKPCQHHHHHH
modifications: 40 kD PEG on the single cysteine at position 203 (linear PEG in paragraph 246; type of PEG not stated in Example 6)
notes: also called 385A08-Fn-V2B-cys (with PEG and his-tag); linear pegylated, his-tagged 385A08-Fn-V2B-cys
